The source of these data is the DeepSol protein solubility set.

The series is described as follows: soluble on expression in E. coli; label from the status in PepcDB or PDB records.
“MAHHHHHHMIGELVLLIGDFHSPMRNLGLPDCFKDLLKTDKIKHVLCTGNVGCRENLELLKNIADSVHITKGDMDDEYDFPEDTSLTIGDFKISLIHGHQIIPWGDTNALLQWQKKYDSDIVISGHTHKNSIVRYEGKYFINPGSATGAFQPWLSQPTPSFILMAVAKSSIVVYVYEEKNGKTNVEMSEL”: the “soluble on expression in E. coli” value is on record as “soluble”. In the case of “MAHHHHHHMKARSSRPVTTITVTSEETIQTHNARDTPRTFEYKTKRNELMRRLEEMRNALEEDNNNNNKGSRVKLCYYDITFNCRDPVDVTVMSGFQRFEGLGDTLSGHMKCEEDDRHKFVGLIKEIIQLDVSHRARNMDKSEIAVVRIAANFKELNSTFTRSAATLL” it was “not soluble”; in that of “MAHHHHHHMKEARKGPCVPWQQNYARWQHTTPVNHVTVMIALDTMNKDRGAPCLVPGSHRWREGGLLPSVPYDPAKDEAQQLNTIWEITNEEESEMLMDTPPATVDMKRGEALLIHPLTLFATHGNRSLDAVRCCFIHYMGGKTYATQNGPLLPHTTQFQAGAMIQGPFYPVVFDPAMTEELAMLPGESAAQNDITEEV”, “not soluble”; in that of “MAHHHHHHMKHIATQHHRGVVADPQPIHRNTRRAVKVQTRPRDQPRDREAVPADRDVRVRWKITLRAEQRVTKCVTGDDDVQRPHSGVRIAQQQQHGAVPPRASIERDVRHVARHRTNQHRQAHAAPAERHVAVAQPRQPAAHSLRNLGVHHVADALTNRRWRWCGRRWRWRWRRGQWRRASRHRRRDARIAVPSSSALALAANDRRRQRCKAVALLRALPARSNRRHVGDAVELQLCRRRQQTSRDRQAPSNEPVTGVNPR”, “not soluble”. In the case of “MAHHHHHHMKINLSFNKNKENKNRNKNGDTDIDNDTRNNKSYKENNPMTRNKIETIFSMSDDEETINYENTHNKIIQQKKENQLNDKIKEYIKEHEEPALTTHEKKEDKKERIDEKNNKKKIQYLGYKSNELTKLNNPKTDDSYDYPFEEKEIYDNLDEKERKKKTIEHNDKDGHEYYKKDHKNHKKYTRSHENDNEVNAYNKDCDVRNKTIDKKTYMKKYDKNIQDYEKKKKKSENSDDDVNRSYLCIDDIFKKKENIDGKKKSKYMEALINSAKRRELEKEFLIQKKQKIDTEKEEKVFVTSAYKKKLMDRELIKKDMDLEVEEKKVDKSSNYNLNLFLKNINAPSNYNRYNRR” it was “soluble”.

For the sequence “MAHHHHHHMKLLKVSPEKNIEFPLVHFQAVTQVVKLENISDRKVAFKIKTTAPNNYLVRPSFGLINVKETIDIQIILQPLSDKDNISNDKFQVQCLNVDDDTTVDKQFWVTVNKNEIQDHKLVVVLNDESFSKGPHSYLPPNNNPLTEINNKGHNLNYGENNLNADDANMAEGTNQRRPHRVCAAV”, the “soluble on expression in E. coli” value is on record as “soluble”. In the case of “MAHHHHHHMKNALEQLDRHPLVNFQMDVSPLYSALKNIMQEQIQQAQLQEKISQRLTNLEAEVRSVGVRQKEFEDSLDALTPDAKLQTQQTLKELSTNIKNLTSDMKKVRYDVGEAMRTAVDAKRGIHDLESELLSIRQQQRDFSDLHQEVMREHLKFTAAVKDIRWKIEEQEKLIQEFSQVKPQNTSEVDESKLHGMLSALCERTDQNFRSVEESSFAVDAELTRLRADMKFVQNEVRMLRSELHRGGNHLRRDVGCRRQSPHGGSQGADKSALRNEEHLNGYESASTQGAL”, the “soluble on expression in E. coli” value is “not soluble”. The result for “MAHHHHHHMKVDSLLSPRSAFSTENDPCGSVESVANDVASASDVVVAYPQPGKRWSRIIAGPELVGMSLKENQIKDGKALCIYGHCFDDGIIDYITNEVLPEARVLTKVEIAETKFSSAGMKILLRALWTNSPCEQMEELLLHDVHLHFEETLQLKEVIMKNRKCLRRLVLQRCHMDDSAAEPIVQAISHCEQLREVNFLDNNIVHALAIPTEREDIFPPTLQIFDISGNRIEPKHFTGLGNALRRCMANLHEVYLARCCVTESGLKTLLCGGLYNSQVLSVLNVSAGRLLHTAGKVLSSVISECPNLQRVYMQDNLLDVEGAAQIALVIPYAKKLTVLGMGRCHLGGRGARYIAEAVKQSASLRELDLSGNGVTDEDVHRICACNDDASFRLSYLDLSDNPLTEDCRCSLETLLEHQKDNSCIVVVRGTGLAVVSSYMEYHNKPTPG” reads “not soluble”; that for “MAHHHHHHMLPILLSTLEKDESATLRERAGMALELLVREAQTQRLLLGGGSSEDAPLSTLAGKQTAPTPHLAAILASLRDESDEVVVAALRVVLACHMAHNAFSVTAALVQGGLIPVLIDLIQSTNTMTQMVACCATRQLFQVKEAHVELLKLGIVATLTKAIIKAEAVALVAEAAEVASLIAEYAQGRRDAVACGTLASLLPHLHNANLTLRVAVYSAAAQITVLEAAKVQAMEVGYPEQLVGELAREDERDVLMHMLRLIYNLAEWPTARVTLRECLPRIAELLQIAEGDEGVMFALSQADRILKKKVFPV”, “not soluble”; that for “MAHHHHHHMLRCSMLRRSMGPGASYVNTVFDTVAKRYDLMNDLLSLGIHRRWKQHFVNDYVRPCPGGKFLDVAGGTGDIAFRIIDGVRLKEEVFGLVPTLRYLTEVVVLDANENMIREGEARAAREGYLDVKWVIGKGEELPFDDMSFDSYTVSFGIRNFSDRPKALREAYRVLKVGGVLNVLEFSKVTCPFLSLPYDVWSYGFIPMAGQILVDRESYQYLVDSIRAFPDQEEFAKMISDAGFGYVRYENLTGGIACIHTAVKTEAVRVKPEKSPLESVATKAKEEKNSVDDEQLNPA”, “not soluble”. The result for “MAHHHHHHMLRGLVNADALTSEQEEHIDQLQHEIDEIWNRRGNYQVDPDAWETMPFFMENITEEDIDKNANCAALASIVYEEVPPDEIAENRKEHGNRALNMALNPNQERRENLARAACYSYTEALQAKGKNTKLSSTIYANRSLAQFIVGNYGHALADAQRSIILDPNYRKAYYRAAKCAFALKKYDMGLQMLEKGRRVVDPPMDAAAQAEFLEMETNCLQGKEQQASEEAKQRRAARSQAAKVSNVARAITSSGIKISSRAEVTSEQMGVYGNPKPYFDTDGMLHVPLLFMYDEYQQTDIMHDVACDVCAAELLDELMPFPWDDRGRYQRLADIVVFFKIDDGANDVQYYEVDQSWPLLEVFREETYEMPQLMPVLHVVCKTSELVDRLEIHRVA” reads “soluble”; that for “MAHHHHHHMLRIGICHFSRQEPQVIGTSVPSFRHFPYRAQDVLHLYRDFLRLIHQHPPQERADLLFRLHNEFYRRRHLTSPKMITGAIKRGEGILNVQRSMLESKTLRARGVSSREQGAQNVDGLWDQLQMLSGHVLPGLRNFRPSRNVLKGSYTQQATTQAVYSRRRL”, “not soluble”; that for “MAHHHHHHMLRIYDPKETVAFYEKNFGMINIHTYHFDEYNFSLYFLITPPYDEEERKKIPPPNTIESEQYLWNLKTVCLELTHNHNSTEKLSNGNNDNDRGFGHIAFNCQDVTQFCDYLFKEKKVNFHKLPHETKMKSIGFALDPNDYWIEIVKRSSEVKWKDKEGIANFSQTMIRVKNPEKSLYFYLHILGMKLVHIKHASDFSLYFLKSPYVEGNKGGDISTKEKPEGEQNLPPYNFEELKKAYQSDEDYENLKTSWEPVLELTHNHGTENDDQFAYHNGNTEPRGFGHIGFLVDDLANYCQELEKLGIPFKKKIHEGQMNNIAFVYDPDNYLVELIQRGTTFGRN”, “not soluble”. In the case of “MAHHHHHHMLSGAEELISDLFRRTSTTSNAVEFILSSNSAAYHDVMQRICNSNQPQLVKGILRTAQSLLPTELFQVFGKSVVPVLLLFAPAVLRRVGELLAAPKETPLSTCGEWDAFTSFITGIHCKLLASPECRATNVRSLPPPPVAARHTPSWSKVFHGEENVSEGVPPPQPSTDCEVNVTAIGTDNYGSLLCTIVCGLSHLLACVATPPCVIGGPGLTTLCNEVMRLLSSTPVFCYASKDANLQIACVSLLLSVLNLGKAVQGCVASSFMPTMRRWFDLTLYSANAVCIQLLFPYILHARAHR” it was “not soluble”; in that of “MAHHHHHHMLSTNISSNLNNTLVNITGRENKGEWLLYPQSNYEFNIDEKLKNKFIIDKEKCKKRINAYNKNGIRNSVLAIILCHRYEYPHLLLLQHIESQKYYLLNGKYKTWEKPKEVLKKKLQKYINKIKDIHFTPAQINKEQEETVEIGDFLGEWWRTQFNSVFLPYLPAHISRPKEYIRLYQVILSPKCIFHLPPGFTLKAIPLFDLNNCGLAISGLSSILSRFKLHCMVQEQDAEN”, “not soluble”; in that of “MAHHHHHHMLTTFNIIWKREQAENVNNEKQCKTVSESLGGNAESSESPSSSISEFDQLVNDVEDLLEEQQINETEKLYKISKCPNEKFNKKNKLSITDLSAQLWCEQQLELILTTGKKRETEAMRLGIERHEVLEKADHLIIDVEVNTREESLGYRLLNTIILLEQLYEYKKAREVWVFGVIRGYVLRGIIDELRIEYDHVSRREYLIISDTKTRKEKREPSFAQKKSSAIQVQTYCLLLQHLKSGKADFKKLFEIYECDPTFEFTAIDLIKYKNLENLCKVVNCLFVRLPKIKEEMEIVYEHQGVEFSRNHIPYFYHSTLFTINILLDYWDGKRSSDVVENSDKWKCKFCDFVRNCVRCPLDG”, “not soluble”. As for “MAHHHHHHMMDMRQLDVSAVARSAMSCMEAKHMSANVKLYTLGFLTFLASSKSWQPYRMSHPDKVEEQALYEDSELASSFISTKYPAGWQQNASEVLNTKFPGLLGEVTAHLSLGGKDTISALPRRHDGR”, the “soluble on expression in E. coli” value is recorded as “not soluble”. In the case of “MAHHHHHHMMNKNDITIDENNKYIFRASSFYNKDGLLIKSYSWEVREPLGIIILVHGLASHIRFGFLKQNAKIVNNDHAVLIDGDNYYIYEGSWIEKLNKNGYSVYGLDLQGHGESDGYQNLKLHIKDYDDYIYDLIDFIKSVYESIISKKEKKQMYIRDNDIIETVPIYLVGYSMGANIILRALQLLNKSNDNLISKLNIKAFISLAGMISIKNIGSIDSLKYKYLFLPIIKMLSYVCPTYRLRKKHSGFKRFPYINDLMNFDKLRYKKGMTNKLAYEVIKSVYILKKYINDIPQNVPILFIHSRHDSVCAYEEVLSFYNNLYNTNKEIYTLENMDHVVTLEPENEQALNKMLTWIKKCE” it was “soluble”; in that of “MAHHHHHHMMRSSFVHKAAAAAAGGGMTATSSDHKMASLHKLLTGEVQFRNNALLKTCNIEHNFGATWKSDIEAYAKCLPADERSCLERQVARVMLTRYTTRELAEYCGEGPEHVDAVAREANIAQAKAHAQQYGADKLEAYVKAESKNAGWSEAETKSFLDAVKAAK”, “soluble”; in that of “MAHHHHHHMMSTYMTRYDYDYNRDPSLTGSDGGSGGGFEQEISGEVRNRPIFAYGVDTGDRDDRTIYQVDYTHKDRSVKNMAGLAATLKGSAASAAAARMRGQDNGTAYQHNWYLPAASAHVVLVDGSHPHTVYQDDYQAPRHVAGGAVHDPVCYAGAAAAAYNADLLKPHGVMEDDGADLAPKITSKESLLPRKHASPNATWTPVFENTADHRHTWNDCVPGDGVVGTYVCTSWDYGDTSQAHPLQLPLSLARSLAAHNLDASANPDKAALLRHLAGKNYSSRTLRGSSSGAPLDTNDRTNPQFLSTVEQKRCAVSRRLEKEHYVTMSIYKSDFIDQGLLPELPGNPGGPADVRDTHTSPLATAGEMMAGQLTTATRELGLLRNAHGTLKSGEAHAASRVSTGVLSAMRAMEKAASIDKADPHCHKLCE”, “not soluble”. The result for “MAHHHHHHMNASGATASEGKNPPRDARTVSFHPESTFHEQHNAASQRFSHTSEPGWESRESNSGYAAQDGGDTANEGIRRSYYKRLYRFYRKYNPQKLCNVEKLLRECRGEEEQLFAILVGKYGPEPEEESSMLSGDCVFSSAGDSVMHYSGKRCQFPKKVKPEEGNTDCETPYWAGASSLIGDRDLLSLLQNLETPNVELQKCYMGVFAEHPTDCWNGMAYITRAEGIAPANTKFLGHTWVGTLGSGKVLVHEGKKFHRTTLYCTEECQKRGNHERWRLSVYRGEVSYLILLRTVWDPVVVPEPLPLNRSNLSEREVHSSLDGFPTRLSSMSSADSGGSGSRQPIQPPQPQQHTVTPAFVQFTKLLEELESRIIERLEGLERRMSRLENM” reads “not soluble”.
